Experimental data from publication PMC8571288 (Nature Communications, 2021).

Columns and labels:
[1] = molecular target: T1, human CST complex (Flag-CTC1-STN1-TEN1-His6) (human, UniProt Q2NKJ3 1-1217; Q9H668 1-368; Q86WV5 1-123); test: pull-down; 1 μM CST or CTC1Δ700N-ST (His6 on TEN1) with 1 μM RAD51, RecA or RPA, 20 min 37 °C, buffer D (35 mM Tris-HCl pH 7.5, 10% glycerol, 0.01% Igepal, 1 mM 2-mercaptoethanol) with 5 mM imidazole and 50 mM KCl; for RPA without DNA or with 2 μM 30-nt ssDNA; captured on His-Tag Dynabeads; SDS-PAGE, Coomassie; details: both partners purified
T1 construct: CTC1, human, subunit of the CST complex; STN1, human, subunit of the CST complex; TEN1, human, subunit of the CST complex; also called wild-type CST; not shown: Flag, N-terminal, kept; His6, C-terminal, kept; copies: + +

[2] = molecular target: T2, CTC1Δ700N-ST complex (CTC1 lacking its N-terminal 700 residues, with STN1 and TEN1-His6) (human, UniProt Q2NKJ3 701-1217; Q9H668 1-368; Q86WV5 1-123); test: as above; details: both partners purified
T2 construct: CTC1, human, with the N-terminal 700 residues removed (CTC1Δ700N); STN1, human, subunit of the CST complex; TEN1, human, subunit of the CST complex; also called CTC1∆700N-ST; not shown: His6, C-terminal, kept; copies: + +
T2 sequence (looked up) 1: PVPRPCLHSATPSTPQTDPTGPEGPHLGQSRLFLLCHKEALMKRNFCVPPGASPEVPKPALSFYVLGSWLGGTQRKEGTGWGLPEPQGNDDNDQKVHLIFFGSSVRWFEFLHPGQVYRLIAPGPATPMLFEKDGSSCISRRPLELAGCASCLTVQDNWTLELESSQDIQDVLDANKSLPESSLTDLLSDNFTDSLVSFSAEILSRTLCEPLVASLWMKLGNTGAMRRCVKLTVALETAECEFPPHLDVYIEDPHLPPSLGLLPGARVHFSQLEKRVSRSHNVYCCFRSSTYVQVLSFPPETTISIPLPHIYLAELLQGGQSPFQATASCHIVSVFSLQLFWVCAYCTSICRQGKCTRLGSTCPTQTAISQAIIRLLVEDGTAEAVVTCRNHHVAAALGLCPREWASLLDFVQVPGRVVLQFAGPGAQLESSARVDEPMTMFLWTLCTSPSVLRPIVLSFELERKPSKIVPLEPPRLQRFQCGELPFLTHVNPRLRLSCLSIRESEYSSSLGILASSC
T2 sequence (looked up) 2: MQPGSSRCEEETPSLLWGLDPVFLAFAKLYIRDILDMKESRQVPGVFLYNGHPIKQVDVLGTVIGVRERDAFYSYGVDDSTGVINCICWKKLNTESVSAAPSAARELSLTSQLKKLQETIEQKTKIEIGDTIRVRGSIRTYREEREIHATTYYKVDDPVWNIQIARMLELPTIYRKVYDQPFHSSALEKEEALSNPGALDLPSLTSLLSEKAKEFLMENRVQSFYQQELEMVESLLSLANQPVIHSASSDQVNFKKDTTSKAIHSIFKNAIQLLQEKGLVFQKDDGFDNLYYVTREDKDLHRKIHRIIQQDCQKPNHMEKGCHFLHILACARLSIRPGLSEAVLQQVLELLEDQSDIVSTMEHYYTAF
T2 sequence (looked up) 3: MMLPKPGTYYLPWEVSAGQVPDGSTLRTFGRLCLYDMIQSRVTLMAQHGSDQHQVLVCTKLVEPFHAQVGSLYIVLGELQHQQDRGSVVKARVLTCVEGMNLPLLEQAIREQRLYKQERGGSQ

B1: human RAD51 (natural protein, UniProt Q06609 1-339, looked up)
chain: MAMQMQLEANADTSVEEESFGPQPISRLEQCGINANDVKKLEEAGFHTVEAVAYAPKKELINIKGISEAKADKILAEAAKLVPMGFTTATEFHQRRSEIIQITTGSKELDKLLQGGIETGSITEMFGEFRTGKTQICHTLAVTCQLPIDRGGGEGKAMYIDTEGTFRPERLLAVAERYGLSGSDVLDNVAYARAFNTDHQTQLLYQASAMMVESRYALLIVDSATALYRTDYSGRGELSARQMHLARFLRMLLRLADEFGVAVVITNQVVAQVDGAAMFAADPKKPIGGNIIAHASTTRLYLRKGRGETRICKIYDSPCLPEAEAMFAINADGVGDAKD
notes: RAD51 recombinase, human
- binding result [1]: binds
- binding result [2]: binds
